Earlier results on 14 substances are cited in paper PMC7772776.

Among the targets are Cys72 (UniProt position 72, VFGMGCFWGAE); Cys102 (UniProt position 102, KFLTPCYHPNV); Cys125 (UniProt position 126, PGDFGCDAQGA); Cys87 (UniProt position 87, RLGRICLDVLK); Cys124 (UniProt position 125, HPGDFCADAQG); Cys145 (UniProt position 145, PILIPCHRVVC); Cys46 (UniProt position 47, DFTFVCPTELG); Cys29 (UniProt position 108, GSCGSCWAFGA); Cys88 (UniProt position 88, ADGSICLDILQ).

Series [1] addresses Cys25 (UniProt position 157, GSCGSCWAFSA).
Series [2] addresses Cys283 (UniProt position 283, GYVLTCPANLG).
The target in series [3] is Cys283 (UniProt position 283, GYVLTCPSNLG).
Series [4] has as its target Cys25 (UniProt position 158, GSCGSCWAFSA).

With “Papaya protease omega (caricain) (Carica papaya)”, in the series with Cys25 [1], the pKa (commonly the negative logarithm of the acid dissociation constant) is reported as 2.9.

Consider “Muscle creatine kinase S285A (HMCK S285A) (Homo sapiens; S285A)”, for which, in the series with Cys283 [2], the pKa was 6.7.

Regarding “Muscle creatine kinase (HMCK) (Homo sapiens)”, the pKa with Cys283 [3] is given as 5.6.

Regarding “Methionine sulfoxide reductase A (MmsrA) (Mus musculus)”, the pKa with Cys72 is 7.2.

On to “Methionine sulfoxide reductase A E115Q (MmsrA E115Q) (Mus musculus; E115Q)”, for which the pKa with Cys72 was 8.2.

With “Ubiquitin-conjugating enzyme UbcH10 C114S (Homo sapiens; C114S)”, the pKa with Cys102 is reported as 10.9.

For the substance “Papain (papaya proteinase I) (Carica papaya)”, the pKa in the series with Cys25 [4] is on record as 3.3.

“Myoglobin A125C (Mb A125C) (Physeter macrocephalus (sperm whale); A125C)”: the pKa with Cys125 was 8.4.

“Ubiquitin-conjugating enzyme Ubc13 (Saccharomyces cerevisiae)”: the pKa with Cys87 was 11.1.

On to “Myoglobin G124C (Mb G124C) (Physeter macrocephalus (sperm whale); G124C)”, for which the pKa in the series with Cys124 is 6.5.

For “O6-alkylguanine-DNA alkyltransferase (AGT) (Homo sapiens)”, the pKa with Cys145 was 5.3.

“Alkyl hydroperoxide reductase C (AhpC) (Salmonella (article gives genus only; Salmonella typhimurium inferred))”: the pKa with Cys46 is 5.9.

Regarding Cathepsin B (Rattus norvegicus), the pKa in the series with Cys29 was 3.6.

Turning to “Ubiquitin-conjugating enzyme E2 B (Ubc2b; 'Ubc2' in Table 1) (Homo sapiens)”, the pKa with Cys88 is recorded as 10.2.
